Test [1] deals with T1, recombinant His-tagged human IL-2Rβ (human, UniProt P14784 27-240, limits assumed).
T1 construct: also called IL-2Rβ-HIS; IL-15Rβ-HIS
T1 sequence (looked up): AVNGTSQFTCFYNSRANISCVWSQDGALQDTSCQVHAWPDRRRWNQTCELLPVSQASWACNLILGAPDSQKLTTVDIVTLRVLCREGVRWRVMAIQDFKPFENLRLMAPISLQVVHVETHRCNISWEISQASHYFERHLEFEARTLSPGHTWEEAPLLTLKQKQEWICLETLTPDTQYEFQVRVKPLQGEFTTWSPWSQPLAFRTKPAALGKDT
As to the kind of experiment: ELISA, coated His-tagged human IL-2Rβ, OD 450 nm. Here is the method:
(§1) For monovalent IL-2 Fc-fusion proteins, recombinant His-tagged human IL-2Rα and IL-2Rβ were added in 25 μL of 1×PBS to wells of 384-well plate and incubated overnight at 4° C. to coat the plates. Plates were washed three times with 0.05% Tween20/1×PBS. Plates were blocked with 100 μL of SuperBlock for 1 hr at RT and then washed 3 times with 0.05% Tween20/1×PBS. IL-2 mutants were diluted in 0.05% Tween 20/1×PBS from 1000 nM to 0 nM and added to plates for 2 hrs at room temperature. Plates were then washed 6 times with 0.05% Tween20/1×PBS. Anti-HisTag-HRP was diluted 1:5000 in 0.05% Tween20/1×PBS and added to plates for 1 hr at RT. Plates were then washed 6 times with 0.05% Tween 20/1×PBS, and TMB was added to develop blue color. Reactions were stopped with 2N […] and light absorbance at 450 nm was read on a BioTek plate reader. Absorbance versus IL-2 concentration is graphed for human IL-2Rα and IL-2Rβ.
(ELISA stands for enzyme-linked immunosorbent assay.)

Test [2] deals with T2, full-length human PD-L1 on K562 cells (human, UniProt Q9NZQ7 19-290).
T2 construct: also called PD-L1/K562; cell surface human PD-L1
As to the kind of experiment: FACS, PD-L1/K562 cells, anti-hFc Alexa Fluor 647. The procedure: Cells were spun down at 1200 rpm for 5 minutes at 4° C. to remove primary antibodies. Cells were then washed once with 200 μL of full medium per well. […] Samples were spun down at 1200 rpm for 5 minutes at 4° C. and washed twice with 200 μL of 1×PBS per well. Reconstituted samples in 200 μL of 1×PBS and read on Attune NxT cytometer.
A general note: Flow cytometry measures light scatter and fluorescence of single cells or particles in a stream.

The target in test [3] is PD-L1 on PD-L1 aAPC/CHOK1 cells (Promega J1250). Kind of test: cell-based or functional assay.
Test [4] shares this target. As to the kind of experiment: cell-based or functional assay. This is another data set of the same source.
For test [5], the target named is T3, human PD-L1-HIS tagged recombinant protein (human, UniProt Q9NZQ7 19-238).
T3 construct: also called hPD-L1-HIS; PD-L1 HIS tagged protein
As to the kind of experiment: SPR, Protein A capture, PD-L1-HIS analyte. On the technique in general: SPR reads the build-up and loss of mass on a sensor chip optically.

The target in test [6] is PD-L1 on PD-L1 aAPC/CHOK1 cells (Promega J1250). Kind of test: cell-based or functional assay. This is another data set of the same source.
Test [7] concerns the target T4, biotinylated PD-L1 (Homo sapiens (Human), UniProt Q9NZQ7 19-238, biotinylated; site not stated). As to the kind of experiment: ELISA as described in Example 7 (value equals Table 17).
Test [8] deals with T3, human PD-L1-HIS tagged recombinant …. Kind of test: SPR, IgG on Protein A, PD-L1-HIS analyte. Here is the method: The assay was run with Biacore T200 control software version 2.0. For each cycle, 1 μg/mL of anti-hPD-L1-IgG was captured for 60 seconds at flow rate of 10 μl/min on flow cell 2 in 1×HBSP buffer on Protein A sensor chip. […] The flow cells were then regenerated with Glycine pH 2 for 60 seconds at flow rate of 30 μl/min. […] The specific binding response unit was derived from subtraction of binding to reference flow cell 1 from antibody captured flow cell 2.

Test [9] has as its target T5, PD-L1 biotinylated (PD-1/PD-L1 TR-FRET assay kit, BPS 72038) (Homo sapiens (Human), UniProt Q9NZQ7 19-238, biotinylated; site not stated).
T5 construct: Kit reagent
Kind of test: HTRF competition, competitor PD-1-Eu. Here is the method:
(§2) Briefly, 1× Immuno buffer 1 was made. […] For each well in 384-well plate, serial diluted scFvs and regents were added according to manufacturer's recommended volume. Samples were incubated at room temperature for 1.5 hours then the fluorescent intensity was read with Biotek Neo2 plate reader using manufacture's instrument setting for the assay.

Test [10] addresses T3, human PD-L1-HIS tagged recombinant …. Kind of test: ELISA, coated PD-L1-HIS, anti-hFc HRP. The procedure: The plate was incubated overnight at 4° C. followed by blocking with 80 μL of superblock per well for 1 hour. […] In between each step, the plate was washed 3 times with 1×PBST in a plate washer. The plate was then developed with 20 μL of TMB substrate for 5 min and stopped by adding 20 μL of 2N sulfuric acid. The plate was read at OD450 nm Biotek plate reader and then plotted in Prism 8.1 software.

The target of test [11] is T6, recombinant His-tagged human IL-2Rα (human, UniProt P01589 22-213, limits assumed).
T6 construct: also called IL-2Rα-HIS; CD25
T6 sequence (looked up): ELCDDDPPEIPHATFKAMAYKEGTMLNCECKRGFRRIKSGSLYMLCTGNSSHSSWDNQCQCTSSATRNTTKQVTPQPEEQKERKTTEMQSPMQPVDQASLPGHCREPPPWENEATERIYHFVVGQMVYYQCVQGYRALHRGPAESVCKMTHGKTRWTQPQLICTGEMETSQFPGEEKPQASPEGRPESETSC
Kind of test: ELISA, coated His-tagged human IL-2Rα, OD 450 nm. Here is the method:
as §1

Test [12] has as its target T4, biotinylated PD-L1. As to the kind of experiment: ELISA, anti-human Fc capture, biotinylated PD-L1. Here is the method:
A 384 well plate was immobilized with anti-human Fc at final concentration of 2 μg/mL in 1×PBS in total volume of 25 μL per well. The plate was incubated overnight at 4° C. followed by blocking with 80 μL of superblock per well for 1 hour. […] In between each step, the plate was washed 3 times with 1×PBST in a plate washer. […] The plate was read at OD450 nm Biotek plate reader and the binding correlation was plotted with Prism 8.1 software.

Test [13] deals with T5, PD-L1 biotinylated (PD-1/PD-L1 TR-FRET …). As to the kind of experiment: HTRF competition, competitor PD-1-Eu. Here is the method:
as §2
The source holds these as a separate data set.

Test [14] shares this target. Kind of test: HTRF competition, competitor PD-1-Eu. Here is the method: as §2
This is another data set of the same source.

Where two headings read alike, the source gives them in different places.

B1: anti-PD-L1 IgG1 antibody EP205/EP206 (2019EP69-F03) (antibody, V domains shown)
VH: QVQLVQSGAEVKKPGSSVKVSCKASGGTFSSYAISWVRQAPGQGLEWMGGIIPIFGTANYAQKFQGRVTITADESTSTAYMELSSLRSEDTAVYYCARDKWYGSAWRGDYWGQGTLVTVSS
VL: QSVLTQPPSASGTPGQRVTISCSGSYSNIGSNFVNWYQQLPGTAPKLLIHFNNQRPSGVPDRFSGSRSGTSASLAISGLQSEDEADYFCSTWDDSLKGPIFGGGTKLTVLG
notes: also called EP206/EP205
With B1, the binding result in test [1] and in test [11] was “no binding (tested: LOG(IL-2(nM)) about 1.8 (about 70 nM))” in each case. Further, the EC50 (commonly the concentration that produces a half-maximal response) is 0.00668 nM in [2], 0.164 nM with biotinylated PD-L1 [7], 0.164 nM in test [10] and 0.26 nM with biotinylated PD-L1 [12]. In addition, the “Jurkat Reporter assay EC50” value in test [3] turned out to be 0.55 nM. The “NFAT reporter EC50” value in [4] and in [6] was 0.549 nM each time. Besides, the Kd in test [5] and in test [8] was 0.363 nM in each case. In addition, the koff (usually the rate constant with which the complex falls apart) in [5] is 0.000347 s⁻¹. Also, the kon (as a rule, a measure of how fast the partners come together) in test [5] was 956000 M⁻¹ s⁻¹. Moreover, the IC50 in test [9], in test [13] and in test [14] was 128 nM each time.
